Measured values published in the nanobody polyreactivity screen of Harvey et al. (2022).

Test: yeast display, Sf9 membrane polyspecificity reagent, FACS + sequencing; frameworks hold sequencing errors
Method in brief: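 Synthetic nanobody libraries on Saccharomyces cerevisiae BJ5465 were galactose-induced for 36–48 hours, stained 1 hour at 4 °C with 10% biotinylated, detergent-solubilized Sf9 membrane reagent and enriched on streptavidin microbeads. FACS then separated cells into low and high (top ~1%) gates by anti-HA (expression) and streptavidin (reagent binding) fluorescence. Genes were colony-PCR amplified, MiSeq 2 × 250 sequenced and CDR-length filtered. A clone's polyreactivity label is that of its gate of origin.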

| Sequence | polyreactivity (PSR sort gate) |
| --- | --- |
| QVQLVESGGGLVQAGGSLRISCASSGNTFTSYAMGWYRQAPGKASELVASIDSDDSTNYADSVKGRFTISRDNAKNTDYFQMNSLKPEETAVFYCAASDNDDWYYVYHYDYWVQGTQVTVSS | low polyreactivity |
| QVQLVESGGGLVQAGGSLRISCDASGSIISRNAMGWYRQAPGKEREFVAAITRSGGSTSYADSVKGRFTISRDNAKNTVYLQMNSLKPEDTAVYYCAASYARSATAYYKYYDWGQGTQVTVSS | high polyreactivity |
| QVQLVESGGGLVQAGGSLRISCDASGSTFKLYPMGWYRQAPGKEREFVAAISRSGGSTNYADSVNGRFTISRDNAKNTVYLQMNSLKPEDTAVYYCAARYPGNYDYWGQGTQVTVSS | high polyreactivity |
| QVQLVESGGGLVQAGGSLRISCDPSGSTFGQYAMGSYRQAPGKERELVAAINWNGGSTYYADSVKGRFTISRDNAKNTVYLQMNSLKPEDTAVYYCAADPVYYDFDYWGQGTQVTVSS | low polyreactivity |
| QVQLVESGGGLVQAGGSLRISCVASARTFRWYAMGWYRQAPGKERELVATITLNGGSTYYADSVKGRFTISRDNAKNNVYLQMNSLKPEDTAVYYCNRGTNVVRRGVYSFGYDYWGQGTQVTVSS | low polyreactivity |
| QVQLVESGGGLVQAGGSLRISSAASGFIFSLNAMGWYRQAPGKERELVASITRSGTRTYYADSVKGRFTISRDNAKKTDFLQRNSLKPEATAVDYCAARTKRSYEYQAFYYWGQGTQVTVSS | high polyreactivity |
| QVQLVESGGGLVQAGGSLRISSAASGRIFRVNGIGWYIQAPGKERELVAAIRRSGGSTYYADSVKGRFTISRDNAKNSVYLLMNILKPDDTAVYFCAAPVRQSSYTRYDSWGQGTQVTVSS | high polyreactivity |
| QVQLVESGGGLVQAGGSLRISSAASGRMLYSYAMGWYRQAPGKESEFVAAIRRSGGSTYYADSVKGRFTISRDNAKNTVYLQMNSLKPEDTAFYYCAAGRRYSGSYDYWGQGTQVTVSS | high polyreactivity |
| QVQLVESGGGLVQAGGSLRITCAASGSTFYGKSMGLYRQAPGKERELVAAISRGGGSTYYADSVKGRFTISRDNAKNTVYLQMNSLIPEDTAVYYCAGTRYLHPWYYPYYYWGQGTQVTVSS | low polyreactivity |
| QVQLVESGGGLVQAGGSLRLALLTPDLPSTINDMGWYRQAPGKERELVAAITRGGSTNYADSVKGRFTISRDNAKNTVYLQMNSLKPEDTAVYYCAAPSAGWRDGGDYWGHGTQVTVSS | low polyreactivity |
| QVQLVESGGGLVQAGGSLRLAVLPPVLPSTLNDMGWYRQAPGKERELVAAITRGGSTNYADSVKGRFTISRDNAKNTVYLQMNSQKPEDTAVYYCAAPYAGWRDGGDNWGQGTQVTVSS | low polyreactivity |
| QVQLVESGGGLVQAGGSLRLCCAASGLIFRRYTMGWYRQAPGKERELVAAISWRVGRTYYADSVKGRFTISRDNAKNTVYLEMNSLKPEDTAVYYCAAILYQYDTPQVSSSRLDYWGQGTQVTVSS | high polyreactivity |
| QVQLVESGGGLVQAGGSLRLCCAASGSIFRPNAMGWYRQAPGKERELVAGISSRGGSTYYADSVKGRFTISRDNAKNTVYLQMNSLKPEDTAVYYCNALTYSSQRNSFYYSFDHWGQGTQVTVSS | high polyreactivity |
| QVQLVESGGGLVQAGGSLRLCCAASGSTFGWNAMRSYRQAPGNERELVAAISSSGGITYYADSVKGRFPISRDNAKNTVYLQMNSLKPEDTAVYYCAAERDDDWFNYWGQGTQVTVSS | low polyreactivity |
| QVQLVESGGGLVQAGGSLRLICAASGASFFDKDMGWYRQAPGKERELVAAAITARGGSTYYADSVKGRFTISRDNAKNTVYLQMNSLKPEDTAVYYCAAGRPGELDYWGQGTQVTVSS | low polyreactivity |
| QVQLVESGGGLVQAGGSLRLICAASGFIFDTYTMGWYRQAPGKERELVAAISRSGASTYYADSVKGRFTISRDNAKNTVYLQMNSLKPEDTAVYYCATVYYPSYRGGYDYWGQGTQVTVSS | high polyreactivity |
| QVQLVESGGGLVQAGGSLRLICAASGFIFDYNTMGWYRPAPGKERELVAGITSGGSTNYADSVKGRFTISRDNAKNTVYLQMNSLKPEDTAVYYCATVDDEYYGYDYWGQGSQVTVSS | low polyreactivity |
